The numbers were not newly measured in PMC10793677, which cites them from elsewhere.

pKd: −log10 of the molar value.

Series [1] deals with CD73 (Homo sapiens) (UniProt P21589). Nature of the series: flow cytometry and SPR. A general note: In flow cytometry, cells or beads pass a laser one at a time.
Series [2] concerns the target CD73 (Mus musculus) (UniProt Q61503). The series can be described thus: flow cytometry and SPR.
Chain of UniProt Q61503 (Q61503 29-551): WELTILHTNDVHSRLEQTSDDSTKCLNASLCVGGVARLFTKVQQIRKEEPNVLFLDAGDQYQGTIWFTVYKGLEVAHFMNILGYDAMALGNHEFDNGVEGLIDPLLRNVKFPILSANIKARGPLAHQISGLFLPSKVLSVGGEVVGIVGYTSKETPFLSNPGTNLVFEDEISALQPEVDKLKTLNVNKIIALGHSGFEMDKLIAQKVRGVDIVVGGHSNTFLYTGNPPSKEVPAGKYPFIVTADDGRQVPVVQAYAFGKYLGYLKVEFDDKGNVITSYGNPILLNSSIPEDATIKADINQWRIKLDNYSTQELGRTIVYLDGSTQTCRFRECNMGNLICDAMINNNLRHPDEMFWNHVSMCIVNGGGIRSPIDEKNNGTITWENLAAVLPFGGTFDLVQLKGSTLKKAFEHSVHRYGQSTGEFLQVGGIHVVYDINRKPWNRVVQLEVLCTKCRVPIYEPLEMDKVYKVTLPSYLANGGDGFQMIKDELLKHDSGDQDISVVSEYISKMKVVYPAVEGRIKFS

Chain of UniProt P21589 (P21589 27-549): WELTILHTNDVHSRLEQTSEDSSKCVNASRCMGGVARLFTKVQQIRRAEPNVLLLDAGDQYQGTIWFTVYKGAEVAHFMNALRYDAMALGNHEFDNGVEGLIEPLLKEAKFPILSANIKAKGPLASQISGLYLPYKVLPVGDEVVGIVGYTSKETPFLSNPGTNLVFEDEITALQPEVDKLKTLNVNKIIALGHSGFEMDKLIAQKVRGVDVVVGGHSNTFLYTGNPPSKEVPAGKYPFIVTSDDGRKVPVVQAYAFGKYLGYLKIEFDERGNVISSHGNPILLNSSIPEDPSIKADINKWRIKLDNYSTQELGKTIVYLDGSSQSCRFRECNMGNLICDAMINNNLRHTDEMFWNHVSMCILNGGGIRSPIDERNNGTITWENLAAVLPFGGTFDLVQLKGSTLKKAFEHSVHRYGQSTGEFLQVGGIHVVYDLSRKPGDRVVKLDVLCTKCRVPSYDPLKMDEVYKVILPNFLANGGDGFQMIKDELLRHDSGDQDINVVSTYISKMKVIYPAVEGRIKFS

On to Oleclumab, for which the negative logarithm of the Kd (pKd) (as a rule, −log10 of the Kd, conventionally taken in molar units) in series [1] is 9.81; in series [2] it was 9.95.
